{"source": "patent US12310324B2", "about": "“Compositions and methods for minimizing nornicotine synthesis in tobacco” (North Carolina State University, priority 2010, dated 2025)", "molecules": {"B1": {"name": "CYP82E10: wild type root-specific tobacco nicotine demethylase (cytochrome P450) expressed in yeast (protein, listed as Nicotiana tabacum)", "chain": "MVSPVEAIVGLVTLTLLFYFIRTKKSQKPSKPLPPKIPGGWPVIGHLFYFDDDSDDRPLARKLGDLADKYGPVFTFRLGLPLVLVVSSYEAIKDCFSTNDAIFSNRPAFLYGEYLGYNNAMLFLTKYGPYWRKNRKLVIQEVLCASRLEKLKHVRFGEIQTSIKNLYTRIDGNSSTINLTDWLEELNFGLIVKMIAGKNYESGKGDEQVERFRKAFKDFIILSMEFVLWDAFPIPLFKWVDFQGHVKAMKRTFKDIDSVFQNWLEEHVKKKEKMEVNAEGNEQDFIDVVLSKMSNEYLDEGYSRDTVIKATVFSLVLDAADTVALHMNWGMALLINNQHALKKAQEEIDKKVGKDRWVEESDIKDLVYLQTIVKEVLRLYPPGPLLVPHENVEDCVVSGYHIPKGTRLFANVMKLQRDPKLWSNPDKFDPERFFAADIDFRGQHYEFIPFGSGRRSCPGMTYAMQVEHLTIAHLIQGFNYKTPNDEPLDMKEGAGLTIRKVNPIEVVITPRLTPELY"}, "B2": {"name": "SEQ ID NO:33: CYP82E5 variant with stop codon for tryptophan at position 422 (protein, listed as Nicotiana tabacum)", "chain": "MVSPVEAIVGLVTLTLLFYFLWPKKFQIPSKPLPPKIPGGWPVIGHLFYFDDDGDDRPLARKLGDLADKYGPVFTFRLGLPLVLVVSSYEAVKDCFSTNDAIFSNRPAFLYGEYLGYSNAMLFLTKYGPYWRKNRKLVIQEVLSASRLEKLKHVRFGKIQTSIKSLYTRIDGNSSTINLTDWLEELNFGLIVKMIAGKNYESGKGDEQVERFRKAFKDFIILSMEFVLWDAFPIPLFKWVDFQGHVKAMKRTFKDIDSVFQNWLEEHVKKREKMEVNAQGNEQDFIDVVLSKMSNEYLDEGYSRDTVIKATVFSLVLDAADTVALHMNWGMALLINNQHALKKAQEEIDKKVGKERWVEESDIKDLVYLQAIVKEVLRLYPPGPLLVPHENVEDCVVSGYHIPKGTRLFANVMKLQRDPKL", "modifications": "CYP82E5 W422Stop Variant"}, "B3": {"name": "CYP82E4 V376M: CYP82E4 variant with methionine for valine at position 376 (protein, listed as Nicotiana tabacum)", "chain": "MLSPIEAIVGLVTFTFLFFFLWTKKSQKPSKPLPPKIPGGWPVIGHLFHFNDDGDDRPLARKLGDLADKYGPVFTFRLGLPLVLVVSSYEAVKDCFSTNDAIFSNRPAFLYGDYLGYNNAMLFLANYGPYWRKNRKLVIQEVLSASRLEKFKHVRFARIQASIKNLYTRIDGNSSTINLTDWLEELNFGLIVKMIAGKNYESGKGDEQVERFKKAFKDFMILSMEFVLWDAFPIPLFKWVDFQGHVKAMKRTFKDIDSVFQNWLEEHINKREKMEVNAEGNEQDFIDVVLSKMSNEYLGEGYSRDTVIKATVFSLVLDAADTVALHINWGMALLINNQKALTKAQEEIDTKVGKDRWVEESDIKDLVYLQAIVKEMLRLYPPGPLLVPHENVEDCVVSGYHIPKGTRLFANVMKLQRDPKLWSDPDTFDPERFIATDIDFRGQYYKYIPFGSGRRSCPGMTYALQVEHLTMAHLIQGFNYRTPNDEPLDMKEGAGITIRKVNPVELIIAPRLAPELY", "modifications": "CYP82E4 V376M Variant"}, "B4": {"name": "pYeDP60-CYPE4v2/1041: CYP82E4v2 enzyme possessing the 1041 mutation (Pro381Ser) (protein, listed as Nicotiana tabacum)", "chain": "MLSPIEAIVGLVTFTFLFFFLWTKKSQKPSKPLPPKIPGGWPVIGHLFHFNDDGDDRPLARKLGDLADKYGPVFTFRLGLPLVLVVSSYEAVKDCFSTNDAIFSNRPAFLYGDYLGYNNAMLFLANYGPYWRKNRKLVIQEVLSASRLEKFKHVRFARIQASIKNLYTRIDGNSSTINLTDWLEELNFGLIVKMIAGKNYESGKGDEQVERFKKAFKDFMILSMEFVLWDAFPIPLFKWVDFQGHVKAMKRTFKDIDSVFQNWLEEHINKREKMEVNAEGNEQDFIDVVLSKMSNEYLGEGYSRDTVIKATVFSLVLDAADTVALHINWGMALLINNQKALTKAQEEIDTKVGKDRWVEESDIKDLVYLQAIVKEVLRLYPSGPLLVPHENVEDCVVSGYHIPKGTRLFANVMKLQRDPKLWSDPDTFDPERFIATDIDFRGQYYKYIPFGSGRRSCPGMTYALQVEHLTMAHLIQGFNYRTPNDEPLDMKEGAGITIRKVNPVELIIAPRLAPELY", "modifications": "CYP82E4 P382S Variant"}, "B5": {"name": "pYeDP60-CYPE4v2: wild type senescence-induced tobacco nicotine demethylase CYP82E4v2 expressed in yeast (protein, listed as Nicotiana tabacum)", "chain": "MLSPIEAIVGLVTFTFLFFFLWTKKSQKPSKPLPPKIPGGWPVIGHLFHFNDDGDDRPLARKLGDLADKYGPVFTFRLGLPLVLVVSSYEAVKDCFSTNDAIFSNRPAFLYGDYLGYNNAMLFLANYGPYWRKNRKLVIQEVLSASRLEKFKHVRFARIQASIKNLYTRIDGNSSTINLTDWLEELNFGLIVKMIAGKNYESGKGDEQVERFKKAFKDFMILSMEFVLWDAFPIPLFKWVDFQGHVKAMKRTFKDIDSVFQNWLEEHINKREKMEVNAEGNEQDFIDVVLSKMSNEYLGEGYSRDTVIKATVFSLVLDAADTVALHINWGMALLINNQKALTKAQEEIDTKVGKDRWVEESDIKDLVYLQAIVKEVLRLYPPGPLLVPHENVEDCVVSGYHIPKGTRLFANVMKLQRDPKLWSDPDTFDPERFIATDIDFRGQYYKYIPFGSGRRSCPRMTYALQVEHLTMAHLIQGFNYRTPNDEPLDMKEGAGITIRKVNPVELIIAPRLAPELY"}, "B6": {"name": "CYP82E4 P458S: CYP82E4 variant with serine for proline at position 458 (protein, listed as Nicotiana tabacum)", "chain": "MLSPIEAIVGLVTFTFLFFFLWTKKSQKPSKPLPPKIPGGWPVIGHLFHFNDDGDDRPLARKLGDLADKYGPVFTFRLGLPLVLVVSSYEAVKDCFSTNDAIFSNRPAFLYGDYLGYNNAMLFLANYGPYWRKNRKLVIQEVLSASRLEKFKHVRFARIQASIKNLYTRIDGNSSTINLTDWLEELNFGLIVKMIAGKNYESGKGDEQVERFKKAFKDFMILSMEFVLWDAFPIPLFKWVDFQGHVKAMKRTFKDIDSVFQNWLEEHINKREKMEVNAEGNEQDFIDVVLSKMSNEYLGEGYSRDTVIKATVFSLVLDAADTVALHINWGMALLINNQKALTKAQEEIDTKVGKDRWVEESDIKDLVYLQAIVKEVLRLYPPGPLLVPHENVEDCVVSGYHIPKGTRLFANVMKLQRDPKLWSDPDTFDPERFIATDIDFRGQYYKYIPFGSGRRSCSGMTYALQVEHLTMAHLIQGFNYRTPNDEPLDMKEGAGITIRKVNPVELIIAPRLAPELY", "modifications": "CYP82E4 P458S Variant"}, "B7": {"name": "CYP82E5 P449L: CYP82E5 variant with leucine for proline at position 449 (protein, listed as Nicotiana tabacum)", "chain": "MVSPVEAIVGLVTLTLLFYFLWPKKFQIPSKPLPPKIPGGWPVIGHLFYFDDDGDDRPLARKLGDLADKYGPVFTFRLGLPLVLVVSSYEAVKDCFSTNDAIFSNRPAFLYGEYLGYSNAMLFLTKYGPYWRKNRKLVIQEVLSASRLEKLKHVRFGKIQTSIKSLYTRIDGNSSTINLTDWLEELNFGLIVKMIAGKNYESGKGDEQVERFRKAFKDFIILSMEFVLWDAFPIPLFKWVDFQGHVKAMKRTFKDIDSVFQNWLEEHVKKREKMEVNAQGNEQDFIDVVLSKMSNEYLDEGYSRDTVIKATVFSLVLDAADTVALHMNWGMALLINNQHALKKAQEEIDKKVGKERWVEESDIKDLVYLQAIVKEVLRLYPPGPLLVPHENVEDCVVSGYHIPKGTRLFANVMKLQRDPKLWSNPDKFDPERFFADDIDYRGQHYEFILFGSGRRSCPGMTYALQAEHLTIAHLIQGFNYKTPNDEPLDMKEGAGLTIRKVNPVEVTITARLAPELY", "modifications": "CYP82E5 P449L"}}, "key": {"CN1CCC[C@H]1c1cccnc1": {"test_system": "CN1CCC[C@H]1c1cccnc1", "assay": "Nicotine demethylase assay, yeast microsomal membrane preparations incubated with [^14C]-nicotine, products resolved by thin layer chromatography", "format": "biochemical, Nicotiana tabacum", "details": "other: substrate saturation curve across a wide range of [^14C]-nicotine concentrations; microsomes from yeast strain W(R) expressing CYP82E10 cDNA", "description": "(§1) To determine whether CYP82E10 functions as a nicotine demethylase gene, its cDNA was cloned into the yeast expression vector pYeDP60 and transformed into yeast strain W(R). Strain W(R) is a yeast cell line that was engineered to overexpress the yeast NADPH-dependent P450 reductase, an enzyme that serves as the direct electron donor to P450s; this system greatly enhances the detection of foreign P450 enzyme activities that are expressed in yeast (Pompon et al., 1995). Nicotine demethylase assays were conducted by incubating yeast microsomal membrane preparations with [^14C]-nicotine, and resolving the products by thin layer chromatography as described in Siminszky et al. (2005)."}, "[1]": {"test_system": "CYP82E10 nicotine demethylase", "assay": "Nicotine demethylase assay, yeast microsomal membranes with [14C]-nicotine, CYP82E10 and variants", "format": "biochemical, tobacco", "description": "as §1\nThe nucleotide and amino acid residues mutated in these plants are also highlighted in FIG. 1. Although no truncation mutations were observed among these individuals, in several cases, mutations were identified that altered an amino acid residue within a highly conserved region of the enzyme. To determine the effects of a particular mutation on CYP82E10 enzyme activity, site-directed mutagenesis was used to introduce the specific mutations corresponding to seven of the nine mutations shown in Table 2 into the CYP82E10 cDNA within the pYeDP60 yeast expression vector. Microsomal preparations from yeast strains expressing each of the seven CYP82E10 variants were assayed in vitro for nicotine demethylase activity using both non-saturating (2.45 μM) and saturating (50 μM) concentrations of [^14C]-nicotine."}, "[2]": {"test_system": "CYP82E10 nicotine demethylase", "format": "cell-based, tobacco", "details": "cultures shaken overnight with 55 μM [14C]-nicotine, methanol extract, TLC", "experimental": "Nicotine demethylase activities of wild type and 1041 mutant CYP82E10-expressing yeast cells was also assayed in vivo."}, "[3]": {"test_system": "CYP82E10 nicotine demethylase", "assay": "Nicotine demethylase assay, yeast microsomal membranes with [14C]-nicotine, CYP82E10 and variants", "format": "biochemical, tobacco", "details": "at the 25 μM substrate level"}, "[4]": {"test_system": "CYP82E5 nicotine demethylase", "assay": "Nicotine demethylase activity of CYP82E5 variants (method not described)", "format": "biochemical, tobacco"}, "[5]": {"target": "CYP82E4 nicotine demethylase (Nicotiana tabacum, UniProt Q38Q87, V376M)", "sequence (Q38Q87 whole entry V376M)": "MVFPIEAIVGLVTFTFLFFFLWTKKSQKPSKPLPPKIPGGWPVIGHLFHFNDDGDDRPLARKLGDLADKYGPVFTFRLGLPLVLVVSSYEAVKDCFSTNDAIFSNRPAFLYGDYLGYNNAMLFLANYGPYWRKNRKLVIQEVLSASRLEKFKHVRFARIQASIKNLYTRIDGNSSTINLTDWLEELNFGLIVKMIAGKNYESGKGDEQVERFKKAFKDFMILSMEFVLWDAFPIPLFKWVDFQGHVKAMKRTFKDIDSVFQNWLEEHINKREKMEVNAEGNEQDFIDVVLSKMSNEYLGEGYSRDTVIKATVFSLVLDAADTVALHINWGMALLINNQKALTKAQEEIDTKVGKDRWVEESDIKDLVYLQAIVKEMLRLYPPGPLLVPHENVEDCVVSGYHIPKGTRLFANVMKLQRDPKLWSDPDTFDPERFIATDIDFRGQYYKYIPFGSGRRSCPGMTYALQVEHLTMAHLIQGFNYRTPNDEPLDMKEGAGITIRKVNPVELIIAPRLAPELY"}, "[6]": {"test_system": "CYP82E4v2 nicotine demethylase", "format": "biochemical, tobacco", "details": "counts per minute of [14C]-nornicotine/mg microsomal protein; ± SD of two technical replications", "description": "as §1\nThe thin layer chromatographic data for the in vitro yeast expression assays corresponding to the plant 1041 mutation are shown in FIG. 3. This particular mutation was selected for more extensive investigation. To provide additional confirmation that the Pro to Ser substitution at amino acid position 381 that defines the plant 1041 mutation is incompatible with nicotine demethylation function, this same mutation was introduced into a CYP82E4v2 cDNA that had been similarly cloned into the pYeDP60 vector. […] Whether introduced into the CYP82E10 or CYP82E4v2 enzymes, a Ser substitution for Pro at position 381 leads to the complete ablation of nicotine demethylase activity in this assay."}, "[7]": {"test_system": "CYP82E4 nicotine demethylase"}, "[8]": {"details": "counts per minute of [14C]-nornicotine/mg microsomal protein, ± SD of two technical replications"}}, "note": "Marks after values point to notes of the source that are not given here.", "data": [{"molecule": "Nicotiana tabacum CYP82E10 nicotine demethylase, wild type, SEQ ID NO:2 (Nicotiana tabacum)", "values": [{"measurement": "Km", "setting": "CN1CCC[C@H]1c1cccnc1", "result": 3.9, "unit": "µM"}]}, {"molecule": "B1", "values": [{"measurement": "CPM nornicotine at 2.45 μM [14C]-nicotine substrate", "setting": "[1]; [8]", "result": "2,296 ± 99 ^ CPM"}, {"measurement": "CPM nornicotine at 50.0 μM [14C]-nicotine substrate", "setting": "[1]; [8]", "result": "15,253 ± 465 CPM"}, {"measurement": "nicotine demethylase (enzyme) activity, result in words", "setting": "[1]; yeast microsomes, [14C]-nicotine", "result": "very robust nicotine demethylase activity"}, {"measurement": "nornicotine detected in extracts of yeast", "setting": "[2]", "result": "could be detected"}, {"measurement": "rate of [14C]-nornicotine synthesis relative to preparations containing CYP82E4v2", "setting": "[3]", "result": "nearly three times greater"}]}, {"molecule": "B2", "values": [{"measurement": "inhibition of nicotine demethylase activity (knocked out)", "setting": "[4]", "result": 100, "unit": "%"}]}, {"molecule": "B3", "values": [{"measurement": "nicotine demethylase activity relative to the wild-type CYP82E4 polypeptide", "setting": "[5]", "result": "about 50%"}]}, {"molecule": "B4", "values": [{"measurement": "CPM nornicotine at 2.45 μM [14C]-nicotine substrate", "setting": "[6]", "result": "Not detected"}, {"measurement": "CPM nornicotine at 50.0 μM [14C]-nicotine substrate", "setting": "[6]", "result": "Not detected"}, {"measurement": "inhibition of nicotine demethylase activity (knocked out)", "setting": "[7]", "result": 100, "unit": "%"}]}, {"molecule": "B5", "values": [{"measurement": "CPM nornicotine at 2.45 μM [14C]-nicotine substrate", "setting": "[6]", "result": "1,813 ± 623^b CPM"}, {"measurement": "CPM nornicotine at 50.0 μM [14C]-nicotine substrate", "setting": "[6]", "result": "5,383 ± 505 CPM"}]}, {"molecule": "B6", "values": [{"measurement": "inhibition of nicotine demethylase activity (knocked out)", "setting": "[7]", "result": 100, "unit": "%"}]}, {"molecule": "B7", "values": [{"measurement": "effect of mutation on nicotine demethylase activity, in words", "setting": "[4]", "result": "inhibition of its nicotine demethylase activity"}]}]}
